From publication PMC3500689

Assays:
[1] = target: GluA2 flip splice variant (R/G edited) (UniProt P19491)
[2] = target: GluA2 flop splice variant (UniProt P19491)
[3] = target: GluA2, native in CA1 pyramidal cells (rat (endogenous in hippocampal slice cultures)) (UniProt P19491)
[4] = target: GluA2 flip splice variant (R/G edited) (UniProt P19491); remark: listed apart in the source

Row | rectification index (g+10 / g-40) of I/V relationships with 100 uM intracellular spermine, HEK293T cells cotransfected at an A1/A2 ratio of 4:1; marker for heteromerization competence [1] | rectification index of patches from HEK293 cells expressing A1i/A2o and γ-8 (threshold by which patches were chosen) [2] | rectification index of patches from HEK293 cells expressing A1o/A2i and γ-8 (threshold by which patches were chosen) [4] | Substance | percentage block of the peak glutamate current by 100 μM philanthotoxin 74 (selective for A1/A2 heteromers), CA1 patches, control slices, mean [3] [%] | percentage block of the peak glutamate current by 100 μM philanthotoxin 74 (selective for A1/A2 heteromers), CA1 patches, slices after 48 hr TTX, mean [3] [%]
1 | 0.1 | > 0.7 | – | GluA1 flip splice variant (from UniProt P19490-2 19-907) (receptor) | – | –
2 | – | – | – | GluA1, native in CA1 pyramidal cells (from UniProt P19490 19-907) (receptor) | 95 | 93.9
3 | 0.7 | – | > 0.7 | GluA1 flop splice variant (from UniProt P19490 19-907) (receptor) | – | –
